Experimental data: paper PMC7928716 (Science Signaling, 2021)
Read-outs that look alike come from different tables or passages of the source. Square brackets hold non-standard residues; d marks the D form. * marks the point of attachment. FITC = O=C1OC2(c3ccc(O)cc3Oc3cc(O)ccc32)c2ccc(NC(=S)*)cc21; pY = N[C@@H](Cc1ccc(OP(=O)(O)O)cc1)C(=O)O; pS = N[C@@H](COP(=O)(O)O)C(=O)O

B2: FITC-labeled C-terminal peptide of ACE2(796–805) (peptide)
peptide: {FITC}-QNTDDVQTSF-OH
B4: FITC-labeled ACE2(787–798) peptide (peptide)
peptide: {FITC}-SKGENNPGFQNT-NH2

How the values were obtained:
Assay in all cases: fluorescence polarisation
[1] = target: B4
SNTA1 PDZ (84–171) = target: T1, SNTA1 PDZ (84–171) (human, UniProt Q13424 84-171)
T1 sequence: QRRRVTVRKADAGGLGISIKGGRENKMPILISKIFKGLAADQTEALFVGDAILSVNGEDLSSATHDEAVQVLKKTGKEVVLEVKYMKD

MAGI1 PDZ1 (1–106) = MAGI1 PDZ1 (1–106) (human, UniProt Q96QZ7 1-106)
SCRIB PDZ1 (718–814) = SCRIB PDZ1 (718–814) (human, UniProt Q14160 718-814)
TAX1BP3 PDZ (7–124) = target: T2, TAX1BP3 PDZ (7–124) (human, UniProt O14907 7-124)
T2 sequence: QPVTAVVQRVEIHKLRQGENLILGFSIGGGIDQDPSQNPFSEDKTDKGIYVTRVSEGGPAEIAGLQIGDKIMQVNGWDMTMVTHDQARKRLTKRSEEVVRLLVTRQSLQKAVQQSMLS

AP2 μ2 (160–435) = target: T3, AP2 μ2 (160–435) (human, UniProt Q96CW1 160-435)
T3 sequence: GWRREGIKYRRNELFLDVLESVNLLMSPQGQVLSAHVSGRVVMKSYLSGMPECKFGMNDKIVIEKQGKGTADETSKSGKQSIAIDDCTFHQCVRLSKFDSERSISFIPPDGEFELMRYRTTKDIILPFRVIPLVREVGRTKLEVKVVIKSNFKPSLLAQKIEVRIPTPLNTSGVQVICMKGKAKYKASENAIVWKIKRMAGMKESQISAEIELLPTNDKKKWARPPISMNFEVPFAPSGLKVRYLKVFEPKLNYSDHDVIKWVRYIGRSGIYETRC

[2] = target: B2
[…]2 ATG8 (2–115) [3] = target: T4, […]2 ATG8 (2–115) (human, UniProt P60520 2-115)
MAP1LC3B ATG8 (2–119) [4] = target: T5, MAP1LC3B ATG8 (2–119) (human, UniProt Q9GZQ8 2-119)
LYN SH2 (106–213) = LYN SH2 (106–213) (human, UniProt P07948 106-213)
[…]2 ATG8 (2–115) [5] = target: T4, […]2 ATG8 (2–115); remark: listed apart in the source
MAP1LC3B ATG8 (2–119) [6] = target: T5, MAP1LC3B ATG8 (2–119); remark: listed apart in the source
MAP1LC3C ATG8 (2–125) = MAP1LC3C ATG8 (2–125) (human, UniProt Q9BXW4 2-125)
IRS1 PTB (157–267) = target: T6, IRS1 PTB (157–267) (human, UniProt P35568 157-267)
T6 sequence: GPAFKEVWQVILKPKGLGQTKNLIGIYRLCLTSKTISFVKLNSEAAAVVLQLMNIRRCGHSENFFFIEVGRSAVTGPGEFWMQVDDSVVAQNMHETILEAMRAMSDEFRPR

FRS2 PTB (8–136) = target: T7, FRS2 PTB (8–136) (human, UniProt Q8WU20 8-136)
T7 sequence: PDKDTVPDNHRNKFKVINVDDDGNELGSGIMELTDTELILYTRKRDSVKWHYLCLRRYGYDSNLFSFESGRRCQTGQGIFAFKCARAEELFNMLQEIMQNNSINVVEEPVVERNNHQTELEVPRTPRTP

DOK1 PTB (151–256) = target: T8, DOK1 PTB (151–256) (human, UniProt Q99704 151-256)
T8 sequence: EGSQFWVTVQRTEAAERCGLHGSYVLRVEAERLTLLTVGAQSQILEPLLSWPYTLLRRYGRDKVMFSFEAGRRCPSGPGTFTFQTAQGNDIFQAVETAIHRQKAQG

TLN2 PTB (309–401) = TLN2 PTB (309–401) (human, UniProt Q9Y4G6 309-401)
Sequence of TLN2 PTB (309–401) (Q9Y4G6 309-401): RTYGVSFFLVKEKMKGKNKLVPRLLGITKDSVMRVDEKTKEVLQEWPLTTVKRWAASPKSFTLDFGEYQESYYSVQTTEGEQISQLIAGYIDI

T4 sequence (P60520 2-115): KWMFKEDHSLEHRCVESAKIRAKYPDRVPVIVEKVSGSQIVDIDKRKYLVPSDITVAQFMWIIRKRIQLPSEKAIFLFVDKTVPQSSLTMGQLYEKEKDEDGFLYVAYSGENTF
Sequence of MAGI1 PDZ1 (1–106) (Q96QZ7 1-106): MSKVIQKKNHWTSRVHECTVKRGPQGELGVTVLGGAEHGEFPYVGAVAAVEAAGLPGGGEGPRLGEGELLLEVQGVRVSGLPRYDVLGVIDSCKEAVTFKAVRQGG
Sequence of SCRIB PDZ1 (718–814) (Q14160 718-814): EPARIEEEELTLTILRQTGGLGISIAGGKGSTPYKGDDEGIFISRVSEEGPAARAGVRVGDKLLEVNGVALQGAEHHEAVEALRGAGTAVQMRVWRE
Sequence of MAP1LC3C ATG8 (2–125) (Q9BXW4 2-125): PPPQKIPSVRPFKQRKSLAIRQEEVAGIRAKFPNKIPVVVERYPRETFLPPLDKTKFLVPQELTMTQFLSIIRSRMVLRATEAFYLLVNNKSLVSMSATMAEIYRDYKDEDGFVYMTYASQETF

B1: TLN1 PTB (442–770) (domain or fragment)
chain: GVSFFLVKEKMKGKNKLVPRLLGITKECVMRVDEKTKEVIQEWNLTNIKRWAASPKSFTLDFGDYQDGYYSVQTTEGEQIAQLIAGYIDIILK
B1 was tested, and the Kd [1] was > 100 µM.

B2 was tested, and the Kd (SNTA1 PDZ (84–171)) was > 100 µM, the Kd (MAGI1 PDZ1 (1–106)) was > 100 µM and the Kd (SCRIB PDZ1 (718–814)) was > 100 µM. The Kd (TAX1BP3 PDZ (7–124)) was > 100 µM.

For {FITC}-FDTEYQRLEAS-NH2 [FITC-labeled ATG9A(4–14) probe peptide], the Kd (AP2 μ2 (160–435)) was 1.64 µM.

B3: NHERF3 PDZ2 (132–224) (domain or fragment)
chain: QPRLCYLVKEGGSYGFSLKTVQGKKGVYMTDITPQGVAMRAGVLADDHLIEVNGENVEDASHEEVVEKVKKSGSRVMFLLVDKETDKRHVEQK
For B3, the Kd [2] was > 100 µM.

With {FITC}-RSGENPYA[pS]IDISKGE-NH2 [FITC-labeled ACE2(775–790) peptide, pSer783] the Kd ([…]2 ATG8 (2–115) [3]) was > 100 µM, the Kd (MAP1LC3B ATG8 (2–119) [4]) was > 100 µM and the Kd (LYN SH2 (106–213)) was > 100 µM.

In the case of {FITC}-DDDWTHLSSK-NH2 [FITC-labeled SQSTM1(335–344) probe peptide], the Kd ([…]2 ATG8 (2–115) [5]) is reported as 11 µM, the Kd (MAP1LC3B ATG8 (2–119) [6]) is reported as 1.9 µM and the Kd (MAP1LC3C ATG8 (2–125)) is reported as 0.33 µM.

In the case of B4, the Kd (IRS1 PTB (157–267)) is reported as > 100 µM, the Kd (FRS2 PTB (8–136)) is reported as > 100 µM and the Kd (DOK1 PTB (151–256)) is reported as > 100 µM. For the same binder, the Kd (TLN2 PTB (309–401)) was > 100 µM.

In the case of {FITC}-RSGENP[pY]ASIDISKGE-NH2 [FITC-labeled ACE2(775–790) peptide, pTyr781], the Kd ([…]2 ATG8 (2–115) [3]) is reported as > 100 µM and the Kd (MAP1LC3B ATG8 (2–119) [4]) is reported as > 100 µM.

B5: Mouse SNX17 FERM (109–388) (domain or fragment)
chain: TQQVPTEEVSLEVLLSNGQKVLVTVLTSDQTEDVLEAVAAKLDLPDDLIGYFSLFLVREKEDGAFSFVRKLQEFELPYVSVTSLRSQEYKIVLRKSYWDSAYDDDVMENRVGLNLLYAQTVSDIEHGWILVTKEQHRQLKSLQEKVSKKEFLRLAQTLRHYGYLRFDACVADFPEKDCPVVVSAGNSELSLQLRLPGQQLREGSFRVTRMRCWRVTSSVPLPSGGTSSPSRGRGEVRLELAFEYLMSKDRLQWVTITSPQAIMMSICLQSMVDELMVKKS
In the case of B5, the Kd [1] is reported as ~100 µM.

In the case of {FITC}-RSGENPYASIDISKGE-NH2 [FITC-labeled ACE2(775–790) peptide, unphosphorylated], the Kd ([…]2 ATG8 (2–115) [3]) is reported as > 100 µM, the Kd (MAP1LC3B ATG8 (2–119) [4]) is reported as > 100 µM and the Kd (LYN SH2 (106–213)) is reported as > 100 µM.
